According to patent publication US20250223606:

Columns and labels:
[1] = test system: TALED psaA Left (TALE array-split DddAtox/TadA-derived AD) (synthetic construct); assay: cell_activity; conditions: pair with P4; A6 14.66 and 12.27, A5 10.67 and 7.68; lettuce protoplasts 7 days after mRNA; callus A5 8.4 and 7.5, A6 12.2 and 10.0
[2] = test system: TALED psaA Right (TALE array-split DddAtox/TadA-derived AD) (synthetic construct); assay: cell_activity; conditions: pair with P3; A6 14.66 and 12.27, A5 10.67 and 7.68; lettuce protoplasts 7 days after mRNA

Substance | activity [1] | activity [2]
lettuce chloroplast psaA start codon, left half-site | 14.7 % editing | –
lettuce chloroplast psaA start codon, right half-site | – | 14.7 % editing
